Experimental data from PMC2241821, “A focused antibody library for selecting scFvs expressed at high levels in the cytoplasm” (BMC Biotechnology, 2007).
Positions count from the first letter of the chain named. Blank lines part the entries; values can stand above or below the binder they belong to.

Target: T1, αβ tubulin dimer (pig, UniProt P02550;P02554)
T1 construct: source: purified from pig brain
Assay: ELISA; tubulin coated on a Nunc Maxisorp 96-well plate; 5-20 μl of cytoplasmic extract of E. coli expressing the scFv; revealed with 9E10 and HRP anti-mouse IgG; also done in presence or absence of 10 mM DTT
Settings: one partner purified

binding result: binds
B1: anti-tubulin scFv E12C (scFv, V domains shown)
VH: EVQLVESGGSLVKPGGSLRLSCAASGFTFSNYSMNWVRQAPGKGLEWISSISGSSRYIYYADFVKGRFTISRDNATNSLYLQMNSLRAEDTAVYYCVRSGGNTFDYWGRGTLVTVSS
VL: QSVLTQPASVSGSPGQSITISCAGTSSDVGGYNYVSWYQQHPGKAPKLMIYEDSKRPSGVSNRFSGSKSGNTASLTISGLQAEDEADYYCQQYYRKPWTFGGGTKLAVL
notes: source: E. coli BL21(DE3)pLysS cytoplasm (pET23NN); in cell extract, and purified (Ni-NTA); not shown: c-myc, C-terminal, kept

binding result: binds
B2: anti-tubulin scFv F1C (scFv, V domains shown)
VH: EVQLVESGGSLVKPGGSLRLSCAASGFTFSNYSMNWVRQAPGKGLEWISSISGSSRYIYYADFVKGRFTISRDNATNSLYLQMNSLRAEDTAVYYCVRGNADGGENWELFDKWGRGTLVTVSS
VL: B1 VL with Q92L, Y94Q, R95N, K96T, P97L
notes: as for B1
